Reference: patent US20190389923A1 (BIORION TECHNOLOGIES B V, published 2019)
Bridge positions count the residues as written; N and C are the ends. Ends that are not written are not given here.

Columns and labels:
[1] = biological target: T1, PDGF-beta receptor on mouse 3T3 fibroblasts (mouse, UniProt P05622 32-1098); test: FITC-BiPPB on mouse 3T3 fibroblasts, fluorescence microscopy
T1 construct: whole, on cells; also called PDGFß-receptor; PDGF-receptor
Description: (§1) Cells were seeded in the 8-well glass plates (Lab-Tek, Nunc, Naperville, Ill.) at 30,000 cells/well in the culture medium. […] After 2 h, cells were washed 3 to 4 times with cold PBS and fixed with 4% paraformaldehyde. The nuclei were counterstained with DAPI and mounted in citifluor (anti-fade reagent) and visualized under fluorescent microscope.
(§2) Similar binding experiments were performed in primary freshly isolated human myofibroblasts, mouse 3T3 fibroblasts and human hepatic stellate cells (LX2).

[2] = biological target: T2, PDGF-beta receptor on primary freshly isolated rat hepatic stellate cells (rat, UniProt Q05030 32-1097); test: FITC-BiPPB on primary rat hepatic stellate cells, fluorescence microscopy
T2 construct: whole, on cells; also called PDGFß-receptor; PDGF-βR
Description: as §1

[3] = biological target: T3, PDGF-beta receptor on human cells (primary human myofibroblasts; human hepatic stellate cells LX2) (human, UniProt P09619 33-1106); test: FITC-BiPPB on primary freshly isolated human myofibroblasts, fluorescence microscopy
T3 construct: whole, on cells; also called PDGFß-receptor; PDGF-βR
Description: as §1, §2

T2 sequence (Q05030 32-1097): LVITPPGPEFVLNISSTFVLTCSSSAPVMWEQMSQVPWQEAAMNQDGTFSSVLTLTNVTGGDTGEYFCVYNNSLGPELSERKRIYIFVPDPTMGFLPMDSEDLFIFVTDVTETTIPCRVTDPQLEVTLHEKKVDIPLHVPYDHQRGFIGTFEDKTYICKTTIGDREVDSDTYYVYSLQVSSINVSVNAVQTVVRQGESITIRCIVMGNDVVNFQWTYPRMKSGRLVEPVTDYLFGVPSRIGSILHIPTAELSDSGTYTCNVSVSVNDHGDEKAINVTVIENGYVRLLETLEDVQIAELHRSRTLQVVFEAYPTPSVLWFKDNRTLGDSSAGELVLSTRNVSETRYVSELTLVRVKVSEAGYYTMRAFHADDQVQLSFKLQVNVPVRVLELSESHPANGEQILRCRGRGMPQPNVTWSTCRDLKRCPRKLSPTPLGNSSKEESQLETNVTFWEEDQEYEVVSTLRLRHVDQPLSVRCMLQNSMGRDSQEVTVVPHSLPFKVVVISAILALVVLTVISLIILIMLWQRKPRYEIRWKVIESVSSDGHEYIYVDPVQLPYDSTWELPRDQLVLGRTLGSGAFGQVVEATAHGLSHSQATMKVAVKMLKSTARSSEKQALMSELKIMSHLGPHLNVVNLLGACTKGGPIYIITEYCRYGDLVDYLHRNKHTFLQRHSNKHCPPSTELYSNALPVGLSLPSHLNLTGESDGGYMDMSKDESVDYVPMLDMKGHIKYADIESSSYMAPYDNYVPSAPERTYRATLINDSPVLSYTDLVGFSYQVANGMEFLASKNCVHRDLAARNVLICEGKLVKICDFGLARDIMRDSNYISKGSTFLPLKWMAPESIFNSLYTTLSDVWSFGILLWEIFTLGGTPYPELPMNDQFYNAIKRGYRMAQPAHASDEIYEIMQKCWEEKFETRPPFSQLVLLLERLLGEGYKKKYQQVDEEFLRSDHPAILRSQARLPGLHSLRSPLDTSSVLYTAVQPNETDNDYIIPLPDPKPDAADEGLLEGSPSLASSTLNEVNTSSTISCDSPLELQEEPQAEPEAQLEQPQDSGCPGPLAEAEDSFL
T1 sequence (P05622 32-1098): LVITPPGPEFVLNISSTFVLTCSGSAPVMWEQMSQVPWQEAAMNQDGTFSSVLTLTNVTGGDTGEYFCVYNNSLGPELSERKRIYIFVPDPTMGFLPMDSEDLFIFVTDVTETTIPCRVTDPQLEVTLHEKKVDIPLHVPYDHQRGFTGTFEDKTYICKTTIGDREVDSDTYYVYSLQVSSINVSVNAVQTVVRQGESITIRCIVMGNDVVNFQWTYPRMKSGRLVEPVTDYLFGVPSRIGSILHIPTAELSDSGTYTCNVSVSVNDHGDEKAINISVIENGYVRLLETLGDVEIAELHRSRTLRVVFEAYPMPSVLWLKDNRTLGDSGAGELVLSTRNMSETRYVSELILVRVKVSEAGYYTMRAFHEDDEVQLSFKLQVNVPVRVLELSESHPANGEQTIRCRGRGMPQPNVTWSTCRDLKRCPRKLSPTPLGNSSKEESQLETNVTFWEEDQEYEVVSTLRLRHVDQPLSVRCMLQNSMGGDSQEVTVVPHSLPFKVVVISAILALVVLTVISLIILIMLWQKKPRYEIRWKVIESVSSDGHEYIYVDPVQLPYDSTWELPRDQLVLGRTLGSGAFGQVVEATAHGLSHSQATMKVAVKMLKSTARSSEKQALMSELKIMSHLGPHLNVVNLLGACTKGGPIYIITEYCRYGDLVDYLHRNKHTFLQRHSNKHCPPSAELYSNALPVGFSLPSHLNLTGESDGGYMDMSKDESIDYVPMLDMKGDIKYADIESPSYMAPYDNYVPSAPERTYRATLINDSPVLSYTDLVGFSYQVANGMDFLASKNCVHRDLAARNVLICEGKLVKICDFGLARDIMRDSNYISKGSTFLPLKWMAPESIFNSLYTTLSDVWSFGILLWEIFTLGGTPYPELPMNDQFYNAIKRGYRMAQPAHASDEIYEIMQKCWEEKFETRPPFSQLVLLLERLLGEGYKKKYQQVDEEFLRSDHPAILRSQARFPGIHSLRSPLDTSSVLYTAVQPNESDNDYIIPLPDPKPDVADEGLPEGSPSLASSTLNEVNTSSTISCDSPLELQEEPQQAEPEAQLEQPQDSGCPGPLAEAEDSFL
T3 sequence (P09619 33-1106): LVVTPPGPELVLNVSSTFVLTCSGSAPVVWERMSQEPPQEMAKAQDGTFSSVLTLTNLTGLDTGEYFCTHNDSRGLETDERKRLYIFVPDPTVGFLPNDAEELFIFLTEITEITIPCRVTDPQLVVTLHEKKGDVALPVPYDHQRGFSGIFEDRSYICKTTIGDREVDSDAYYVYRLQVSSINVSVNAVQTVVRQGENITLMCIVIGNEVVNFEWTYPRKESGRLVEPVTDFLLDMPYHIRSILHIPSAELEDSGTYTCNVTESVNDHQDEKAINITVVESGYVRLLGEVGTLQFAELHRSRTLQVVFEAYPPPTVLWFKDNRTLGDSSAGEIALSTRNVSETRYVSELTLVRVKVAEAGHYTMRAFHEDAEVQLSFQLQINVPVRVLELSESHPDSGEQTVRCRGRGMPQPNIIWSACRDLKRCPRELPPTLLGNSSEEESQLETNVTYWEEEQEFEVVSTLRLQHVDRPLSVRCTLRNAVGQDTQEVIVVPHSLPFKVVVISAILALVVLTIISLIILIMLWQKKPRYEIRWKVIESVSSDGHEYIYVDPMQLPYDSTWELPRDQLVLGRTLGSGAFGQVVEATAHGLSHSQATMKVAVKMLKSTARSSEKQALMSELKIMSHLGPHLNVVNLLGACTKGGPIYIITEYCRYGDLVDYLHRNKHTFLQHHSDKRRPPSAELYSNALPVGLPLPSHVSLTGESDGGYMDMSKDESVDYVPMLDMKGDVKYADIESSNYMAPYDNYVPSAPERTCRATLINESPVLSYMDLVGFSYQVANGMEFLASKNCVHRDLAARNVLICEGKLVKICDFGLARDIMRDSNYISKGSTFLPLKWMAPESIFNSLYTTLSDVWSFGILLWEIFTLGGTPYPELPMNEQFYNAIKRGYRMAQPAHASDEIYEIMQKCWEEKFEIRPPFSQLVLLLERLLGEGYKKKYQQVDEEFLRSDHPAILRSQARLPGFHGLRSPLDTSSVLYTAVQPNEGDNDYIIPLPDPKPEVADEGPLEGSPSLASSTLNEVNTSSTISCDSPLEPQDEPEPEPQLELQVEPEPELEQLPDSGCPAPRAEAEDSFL

binding result [1]: binds
binding result [2]: binds
binding result [3]: binds
B1: BiPPB (bicyclic PDGF-beta-receptor binding peptide), C(1)SRNLIDC(1)GGGDGGC(2)SRNLIDC(2), FITC-labelled (peptide)
peptide: CSRNLIDCGGGDGGCSRNLIDC
modifications: disulfide 1-8, 15-22; also: FITC label (site not given here)
notes: Used on primary rat hepatic stellate cells; also called FITC-coupled BiPPB
